Data from patent US20230203177A1 (Bristol-Myers Squibb, published 2023).
Substitutions are numbered along the chain they refer to. Names and notes keep the numbering of the source.

B1: M4 (HC-K12E / LC-wt) (antibody, human IgG1, kappa)
heavy: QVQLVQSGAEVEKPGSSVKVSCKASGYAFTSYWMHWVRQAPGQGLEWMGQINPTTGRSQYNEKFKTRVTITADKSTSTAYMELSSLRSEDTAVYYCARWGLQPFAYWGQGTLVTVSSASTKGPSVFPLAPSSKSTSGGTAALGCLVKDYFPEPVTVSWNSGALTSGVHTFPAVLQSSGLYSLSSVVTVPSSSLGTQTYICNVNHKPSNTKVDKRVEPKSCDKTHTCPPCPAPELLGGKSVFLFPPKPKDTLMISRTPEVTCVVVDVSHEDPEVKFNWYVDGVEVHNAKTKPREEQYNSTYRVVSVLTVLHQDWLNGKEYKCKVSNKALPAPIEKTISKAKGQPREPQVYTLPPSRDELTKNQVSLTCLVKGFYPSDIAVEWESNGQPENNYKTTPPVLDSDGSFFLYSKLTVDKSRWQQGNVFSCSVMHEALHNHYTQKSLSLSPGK
light: DIQMTQSPSFLSASVGDRVTITCKASQDVSTAVAWYQQKPGKAPKLLIYSASYRYTGVPSRFSGSGSGTDFTLTISSLQPEDFATYYCQQHYSTPWTFGGGTKVEIKRTVAAPSVFIFPPSDEQLKSGTASVVCLLNNFYPREAKVQWKVDNALQSGNSQESVTEQDSKDSTYSLSSTLTLSKADYEKHKVYACEVTHQGLSSPVTKSFNRGEC
notes: IgG1-P238K; two production batches; also called HC4/LC1; M4-b
B2: M10 (HC-R67E / LC-wt) (antibody, human IgG1, kappa)
heavy: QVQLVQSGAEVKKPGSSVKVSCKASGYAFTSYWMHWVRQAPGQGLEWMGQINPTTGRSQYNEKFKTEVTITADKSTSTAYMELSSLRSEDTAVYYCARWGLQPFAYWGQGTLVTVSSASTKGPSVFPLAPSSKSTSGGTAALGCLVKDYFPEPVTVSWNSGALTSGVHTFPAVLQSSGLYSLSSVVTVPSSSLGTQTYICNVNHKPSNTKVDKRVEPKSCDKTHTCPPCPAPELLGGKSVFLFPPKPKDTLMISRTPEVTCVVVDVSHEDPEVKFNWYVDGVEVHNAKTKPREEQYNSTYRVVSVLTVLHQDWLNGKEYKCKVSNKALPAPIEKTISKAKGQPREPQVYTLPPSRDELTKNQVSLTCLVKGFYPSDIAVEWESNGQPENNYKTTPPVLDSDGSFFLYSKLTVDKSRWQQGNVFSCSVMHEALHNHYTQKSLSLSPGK
light: B1 light
notes: IgG1-P238K; also called HC10/LC1
B3: M68 (HC-K12E / LC-R61Q) (antibody, human IgG1, kappa)
heavy: not shown
light: B1 light with R61Q
notes: IgG1-P238K; also called HC4/LC5
B4: M94 (HC-K74T / LC-K107Q,R108Q) (antibody, human IgG1, kappa)
heavy: not shown
light: B1 light with K107Q, R108Q
notes: IgG1-P238K; also called HC14/LC6
B5: M76 (HC-R57E,K74Q / LC-R61Q) (antibody, human IgG1, kappa, V domains shown)
VH: QVQLVQSGAEVKKPGSSVKVSCKASGYAFTSYWMHWVRQAPGQGLEWMGQINPTTGESQYNEKFKTRVTITADQSTSTAYMELSSLRSEDTAVYYCARWGLQPFAYWGQGTLVTVSS
VL: DIQMTQSPSFLSASVGDRVTITCKASQDVSTAVAWYQQKPGKAPKLLIYSASYRYTGVPSQFSGSGSGTDFTLTISSLQPEDFATYYCQQHYSTPWTFGGGTKVEIKR
notes: IgG1-P238K; also called HC12/LC5
B6: M83 (HC-K12Q,K13Q,K23Q / LC-K107Q,R108Q) (antibody, human IgG1, kappa)
heavy: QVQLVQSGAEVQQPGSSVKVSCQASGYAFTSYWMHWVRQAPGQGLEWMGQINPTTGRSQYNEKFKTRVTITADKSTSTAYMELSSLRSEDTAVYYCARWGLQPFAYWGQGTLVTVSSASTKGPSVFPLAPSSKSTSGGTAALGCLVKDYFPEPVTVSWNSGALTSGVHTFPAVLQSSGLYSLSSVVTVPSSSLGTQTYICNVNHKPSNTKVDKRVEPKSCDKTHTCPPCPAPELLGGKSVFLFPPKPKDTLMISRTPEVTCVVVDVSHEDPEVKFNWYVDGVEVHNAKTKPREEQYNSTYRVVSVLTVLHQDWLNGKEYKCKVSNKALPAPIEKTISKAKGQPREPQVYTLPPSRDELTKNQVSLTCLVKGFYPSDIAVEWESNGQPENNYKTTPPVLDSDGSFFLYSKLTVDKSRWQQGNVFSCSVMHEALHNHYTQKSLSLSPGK
light: B1 light with K107Q, R108Q
notes: IgG1-P238K; also called HC3/LC6
B7: M86 (HC-K12V,K19S,K23A / LC-K107Q,R108Q) (antibody, human IgG1, kappa)
heavy: not shown
light: B1 light with K107Q, R108Q
notes: IgG1-P238K; also called HC6/LC6
B8: M69 (HC-K12E,K13Q,K23E / LC-R61Q) (antibody, human IgG1, kappa)
heavy: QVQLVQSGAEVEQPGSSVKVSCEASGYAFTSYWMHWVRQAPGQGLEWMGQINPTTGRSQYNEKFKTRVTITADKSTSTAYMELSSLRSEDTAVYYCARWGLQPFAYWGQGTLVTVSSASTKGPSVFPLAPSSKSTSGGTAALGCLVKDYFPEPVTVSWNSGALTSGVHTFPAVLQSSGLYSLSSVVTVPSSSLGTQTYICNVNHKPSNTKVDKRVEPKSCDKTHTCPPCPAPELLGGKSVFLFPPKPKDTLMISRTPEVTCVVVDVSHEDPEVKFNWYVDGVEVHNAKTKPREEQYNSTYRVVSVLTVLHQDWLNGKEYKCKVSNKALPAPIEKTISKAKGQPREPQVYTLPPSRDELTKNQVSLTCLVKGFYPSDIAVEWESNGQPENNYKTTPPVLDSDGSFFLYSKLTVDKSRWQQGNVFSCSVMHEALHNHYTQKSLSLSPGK
light: B1 light with R61Q
notes: IgG1-P238K; also called HC5/LC5
B9: M95 (HC-R67Q / LC-K107Q,R108Q) (antibody, human IgG1, kappa)
heavy: not shown
light: B1 light with K107Q, R108Q
notes: IgG1-P238K; also called HC15/LC6
B10: M73 (HC-K63Q,R67E / LC-R61Q) (antibody, human IgG1, kappa, V domains shown)
VH: B5 VH with E57R, K63Q, R67E, Q74K
VL: B5 VL
notes: IgG1-P238K; also called HC9/LC5
B11: M89 (HC-K63Q,R67E / LC-K107Q,R108Q) (antibody, human IgG1, kappa)
heavy: not shown
light: B1 light with K107Q, R108Q
notes: IgG1-P238K; also called HC9/LC6
B12: M66 (HC-K12Q,K13Q / LC-R61Q) (antibody, human IgG1, kappa)
heavy: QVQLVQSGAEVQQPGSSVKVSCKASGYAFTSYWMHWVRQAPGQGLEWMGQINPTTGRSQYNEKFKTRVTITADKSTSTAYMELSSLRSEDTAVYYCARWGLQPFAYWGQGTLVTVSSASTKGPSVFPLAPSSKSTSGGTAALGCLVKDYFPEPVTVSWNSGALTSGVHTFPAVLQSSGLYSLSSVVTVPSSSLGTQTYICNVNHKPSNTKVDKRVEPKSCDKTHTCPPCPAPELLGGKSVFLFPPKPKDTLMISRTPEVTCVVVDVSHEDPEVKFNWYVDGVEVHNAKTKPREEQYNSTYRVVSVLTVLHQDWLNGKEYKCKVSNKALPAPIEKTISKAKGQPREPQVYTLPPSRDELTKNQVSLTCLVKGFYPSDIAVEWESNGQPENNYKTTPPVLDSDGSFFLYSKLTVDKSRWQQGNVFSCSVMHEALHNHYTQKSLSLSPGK
light: B1 light with R61Q
notes: IgG1-P238K; also called HC2/LC5
B13: M96 (HC-K63Q / LC-K107Q,R108Q) (antibody, human IgG1, kappa)
heavy: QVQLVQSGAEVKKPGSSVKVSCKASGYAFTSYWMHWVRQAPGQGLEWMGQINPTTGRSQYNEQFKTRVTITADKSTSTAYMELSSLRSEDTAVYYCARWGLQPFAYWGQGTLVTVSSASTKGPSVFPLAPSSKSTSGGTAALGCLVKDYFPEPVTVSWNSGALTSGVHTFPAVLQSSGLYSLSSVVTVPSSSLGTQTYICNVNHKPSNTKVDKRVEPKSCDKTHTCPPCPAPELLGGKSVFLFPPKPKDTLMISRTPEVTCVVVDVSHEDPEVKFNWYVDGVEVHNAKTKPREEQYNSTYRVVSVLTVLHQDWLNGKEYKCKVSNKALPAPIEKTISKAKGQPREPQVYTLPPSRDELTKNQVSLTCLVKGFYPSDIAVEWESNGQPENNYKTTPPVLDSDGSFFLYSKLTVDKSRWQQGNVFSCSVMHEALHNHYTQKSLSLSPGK
light: B1 light with K107Q, R108Q
notes: IgG1-P238K; also called HC16/LC6
B14: M67 (HC-K12Q,K13Q,K23Q / LC-R61Q) (antibody, human IgG1, kappa, V domains shown)
VH: B5 VH with K12Q, K13Q, K23Q, E57R, Q74K
VL: B5 VL
notes: IgG1-P238K; also called HC3/LC5
B15: M84 (HC-K12E / LC-K107Q,R108Q) (antibody, human IgG1, kappa)
heavy: not shown
light: B1 light with K107Q, R108Q
notes: IgG1-P238K; also called HC4/LC6
B16: M85 (HC-K12E,K13Q,K23E / LC-K107Q,R108Q) (antibody, human IgG1, kappa)
heavy: not shown
light: B1 light with K107Q, R108Q
notes: IgG1-P238K; also called HC5/LC6
B17: M75 (HC-R57E / LC-R61Q) (antibody, human IgG1, kappa, V domains shown)
VH: B5 VH with Q74K
VL: B5 VL
notes: IgG1-P238K; also called HC11/LC5
B18: M91 (HC-R57E / LC-K107Q,R108Q) (antibody, human IgG1, kappa)
heavy: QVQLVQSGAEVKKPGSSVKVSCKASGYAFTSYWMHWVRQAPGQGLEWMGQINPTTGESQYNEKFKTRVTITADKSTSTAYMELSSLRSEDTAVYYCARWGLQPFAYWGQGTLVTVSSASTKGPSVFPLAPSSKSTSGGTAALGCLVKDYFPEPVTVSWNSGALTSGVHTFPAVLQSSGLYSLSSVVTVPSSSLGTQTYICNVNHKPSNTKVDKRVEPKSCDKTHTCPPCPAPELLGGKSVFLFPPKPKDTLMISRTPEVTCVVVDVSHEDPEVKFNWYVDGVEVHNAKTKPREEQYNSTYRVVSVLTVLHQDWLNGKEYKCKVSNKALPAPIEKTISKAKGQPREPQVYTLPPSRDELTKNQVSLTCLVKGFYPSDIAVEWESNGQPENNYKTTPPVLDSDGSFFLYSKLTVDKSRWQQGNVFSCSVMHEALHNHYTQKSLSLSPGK
light: B1 light with K107Q, R108Q
notes: IgG1-P238K; also called HC11/LC6
B19: M78 (HC-K74T / LC-R61Q) (antibody, human IgG1, kappa, V domains shown)
VH: B5 VH with E57R, Q74T
VL: B5 VL
notes: IgG1-P238K; also called HC14/LC5
B20: M65 (HC-wt / LC-R61Q) (antibody, human IgG1, kappa)
heavy: not shown
light: B1 light with R61Q
notes: IgG1-P238K; also called HC1/LC5
B21: M79 (HC-R67Q / LC-R61Q) (antibody, human IgG1, kappa, V domains shown)
VH: B5 VH with E57R, R67Q, Q74K
VL: B5 VL
notes: IgG1-P238K; also called HC15/LC5
B22: M87 (HC-K23E / LC-K107Q,R108Q) (antibody, human IgG1, kappa)
heavy: not shown
light: B1 light with K107Q, R108Q
notes: IgG1-P238K; also called HC7/LC6
B23: M77 (HC-E46K,E62K / LC-R61Q) (antibody, human IgG1, kappa, V domains shown)
VH: B5 VH with E46K, E57R, E62K, Q74K
VL: B5 VL
notes: IgG1-P238K; also called HC13/LC5
B24: M70 (HC-K12V,K19S,K23A / LC-R61Q) (antibody, human IgG1, kappa, V domains shown)
VH: B5 VH with K12V, K19S, K23A, E57R, Q74K
VL: B5 VL
notes: IgG1-P238K; also called HC6/LC5
B25: M82 (HC-K12Q,K13Q / LC-K107Q,R108Q) (antibody, human IgG1, kappa)
heavy: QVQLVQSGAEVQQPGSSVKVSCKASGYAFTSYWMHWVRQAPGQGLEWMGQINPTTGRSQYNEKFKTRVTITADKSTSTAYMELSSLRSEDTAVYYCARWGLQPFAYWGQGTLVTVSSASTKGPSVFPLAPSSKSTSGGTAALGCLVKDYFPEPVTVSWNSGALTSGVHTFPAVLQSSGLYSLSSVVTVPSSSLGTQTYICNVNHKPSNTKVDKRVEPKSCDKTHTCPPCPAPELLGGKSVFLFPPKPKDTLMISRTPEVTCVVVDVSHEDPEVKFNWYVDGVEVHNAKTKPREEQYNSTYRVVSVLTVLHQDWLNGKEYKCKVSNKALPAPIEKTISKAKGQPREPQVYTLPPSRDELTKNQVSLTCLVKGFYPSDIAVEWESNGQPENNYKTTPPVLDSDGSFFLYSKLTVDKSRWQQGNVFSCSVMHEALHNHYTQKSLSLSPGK
light: B1 light with K107Q, R108Q
notes: IgG1-P238K; also called HC2/LC6
B26: M72 (HC-R38Q,K63Q,R67Q / LC-R61Q) (antibody, human IgG1, kappa, V domains shown)
VH: B5 VH with R38Q, E57R, K63Q, R67Q, Q74K
VL: B5 VL
notes: IgG1-P238K; also called HC8/LC5
B27: M90 (HC-R67E / LC-K107Q,R108Q) (antibody, human IgG1, kappa)
heavy: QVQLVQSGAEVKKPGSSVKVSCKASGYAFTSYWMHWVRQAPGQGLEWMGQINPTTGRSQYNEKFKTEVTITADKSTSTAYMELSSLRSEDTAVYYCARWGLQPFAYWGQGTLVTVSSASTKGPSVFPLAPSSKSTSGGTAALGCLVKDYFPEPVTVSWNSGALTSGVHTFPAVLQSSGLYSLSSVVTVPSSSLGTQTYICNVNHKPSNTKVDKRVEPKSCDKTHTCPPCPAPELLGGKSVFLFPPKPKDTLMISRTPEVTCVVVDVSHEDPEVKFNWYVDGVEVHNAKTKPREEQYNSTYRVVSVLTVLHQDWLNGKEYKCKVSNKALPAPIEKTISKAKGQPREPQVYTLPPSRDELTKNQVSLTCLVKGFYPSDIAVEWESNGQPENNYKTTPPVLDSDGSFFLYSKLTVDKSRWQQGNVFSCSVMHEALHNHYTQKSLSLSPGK
light: B1 light with K107Q, R108Q
notes: IgG1-P238K; also called HC10/LC6
B28: M92 (HC-R57E,K74Q / LC-K107Q,R108Q) (antibody, human IgG1, kappa)
heavy: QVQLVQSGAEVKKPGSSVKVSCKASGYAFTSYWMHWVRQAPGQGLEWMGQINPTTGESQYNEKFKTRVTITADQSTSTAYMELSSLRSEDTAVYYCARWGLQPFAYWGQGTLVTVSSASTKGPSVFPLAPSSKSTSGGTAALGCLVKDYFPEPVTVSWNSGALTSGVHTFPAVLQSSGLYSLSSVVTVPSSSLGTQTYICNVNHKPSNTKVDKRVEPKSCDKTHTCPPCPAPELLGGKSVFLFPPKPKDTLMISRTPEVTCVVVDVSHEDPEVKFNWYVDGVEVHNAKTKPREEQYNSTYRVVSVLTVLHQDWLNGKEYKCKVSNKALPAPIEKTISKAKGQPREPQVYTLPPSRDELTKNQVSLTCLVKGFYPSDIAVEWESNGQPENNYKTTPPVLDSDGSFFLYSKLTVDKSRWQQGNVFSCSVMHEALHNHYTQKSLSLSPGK
light: B1 light with K107Q, R108Q
notes: IgG1-P238K; also called HC12/LC6
B29: M71 (HC-K23E / LC-R61Q) (antibody, human IgG1, kappa)
heavy: not shown
light: B1 light with R61Q
notes: IgG1-P238K; also called HC7/LC5
B30: M74 (HC-R67E / LC-R61Q) (antibody, human IgG1, kappa, V domains shown)
VH: B5 VH with E57R, R67E, Q74K
VL: B5 VL
notes: IgG1-P238K; also called HC10/LC5
B31: M93 (HC-E46K,E62K / LC-K107Q,R108Q) (antibody, human IgG1, kappa)
heavy: not shown
light: B1 light with K107Q, R108Q
notes: IgG1-P238K; also called HC13/LC6
B32: M88 (HC-R38Q,K63Q,R67Q / LC-K107Q,R108Q) (antibody, human IgG1, kappa)
heavy: not shown
light: B1 light with K107Q, R108Q
notes: IgG1-P238K; also called HC8/LC6

target: T1, soluble human CD40 extracellular domain (human, UniProt P25942 21-193); test: SPR, antibody captured from supernatant on protein A chip, soluble hCD40 ECD at 5 and 50 nM (summary table of the 16 chosen antibodies)
T1 construct: Produced in house; also called hCD40; soluble hCD40 extracellular domain
T1 sequence (P25942 21-193 limits assumed): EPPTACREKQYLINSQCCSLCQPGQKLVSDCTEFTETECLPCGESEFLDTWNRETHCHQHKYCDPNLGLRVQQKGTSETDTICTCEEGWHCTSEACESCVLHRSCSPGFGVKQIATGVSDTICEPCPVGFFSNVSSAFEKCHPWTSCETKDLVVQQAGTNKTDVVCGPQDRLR

Binder | Kd [nM]
B1 | 3.6
B2 | 3

target: T1, soluble human CD40 extracellular domain; test: SPR, purified Ab on protein A, 6 concentrations of hCD40 ECD
Method: Additionally, to more accurately define the dissociation rate (kd), a longer dissociation time of 360 seconds (s) was used as opposed to the shorter 180 s dissociation that had been used in the supernatant screening experiment.
CD40 binding SPR: SPR studies of the purified antibodies were conducted on BIAcore™ T200 instrument (GE Healthcare, Chicago Ill.). A Series S Protein A sensor chip (GE Healthcare, Chicago Ill.) was equilibrated with SPR running buffer of 10 mM NaPO₄, 130 mM NaCl, 0.05% tween 20, (PBS-T) pH 7.2 at 25° C. The purified antibody samples were diluted to 3 μg/ml in PBS-T and captured on the protein A surface for 30 s at 10 μl/min Binding of 3.91, 7.81, 15.6, 31.3, 62.5, and 125 nM human CD40 extracellular domain (produced in house) was evaluated using association time of 180 s at 30 μl/min, followed by a dissociation time of 360 s at 30 μl/min Regeneration between cycles was accomplished using two 15 s injections of 10 mM glycine pH 1.5. […] Data were analyzed using BIAcore™ T200 evaluation software by fitting to a 1:1 Langmuir model.

Binder | Kd [nM] | koff [s⁻¹] | kon [M⁻¹ s⁻¹]
B1 | 2.8 | 0.00069 | 250000
B2 | 2.3 | 0.00067 | 290000

target: T1, soluble human CD40 extracellular domain; test: SPR, Ab captured from supernatant on protein A, hCD40 ECD analyte
Method: The titer data (Table 21) were used to normalize the antibody concentration in each supernatant to 3 μg/ml, and these antibodies were captured out of the supernatants on a protein A CMS Series S sensor chip (GE Healthcare), and tested for binding to two concentrations (5 nM and 50 nM) of soluble hCD40 extracellular domain.
CD40 binding SPR of antibody supernatants: Surface plasmon resonance (SPR) studies were conducted on a BIAcore™ T200 instrument (GE Healthcare, Chicago Ill.). A Series S Protein A sensor chip (GE Healthcare, Chicago Ill.) was equilibrated with SPR running buffer of 10 mM NaPO₄, 130 mM NaCl, 0.05% tween 20, (PBS-T) pH 7.2 at 25° C. The 96 antibody supernatants were normalized to a concentration of 3 μg/ml by diluting with PBS-T using a PerkinElmer JANUS® G3 system (PerkinElmer, Akron, Ohio). After priming the system, the 3 μg/ml antibody samples were captured on the protein A surface for 30 s at 10 μl/min Binding of 50 nM and 500 nM human CD40 extracellular domain (produced in house) was evaluated using association time of 180 s at 30 μl/min, followed by a dissociation time of 180 s at 30 μl/min Regeneration between cycles was accomplished using two 15 s injections of 10 mM glycine pH 1.5. […] Data were analyzed using BIAcore™ T200 evaluation software by fitting to a 1:1 Langmuir model.

Binder | Kd [nM]
B1 | 3.6
B3 | 3.6
B4 | 3.6
B5 | 14.8
B6 | 3.6
B7 | 3.7
B8 | 3.8
B9 | 3.4
B10 | 3
B11 | 3.3
B12 | 3.6
B13 | 3.9
B14 | 3.6
B15 | 3.3
B16 | 3.3
B17 | 10.5

Binder | Kd [nM]
B18 | 9.6
B19 | 4
B20 | 4.3
B21 | 3.5
B2 | 3
B22 | 4.3
B23 | 7.9
B24 | 3.5
B25 | 3.2
B26 | 2.9
B27 | 3
B28 | 13.4
B29 | 4.4
B30 | 2.9
B31 | 8.1
B32 | 3.2

target: human CD40 on primary human tonsillar B cells (human, UniProt P25942 21-277); test: cell-based or functional assay
Sequence (P25942 21-277 limits assumed): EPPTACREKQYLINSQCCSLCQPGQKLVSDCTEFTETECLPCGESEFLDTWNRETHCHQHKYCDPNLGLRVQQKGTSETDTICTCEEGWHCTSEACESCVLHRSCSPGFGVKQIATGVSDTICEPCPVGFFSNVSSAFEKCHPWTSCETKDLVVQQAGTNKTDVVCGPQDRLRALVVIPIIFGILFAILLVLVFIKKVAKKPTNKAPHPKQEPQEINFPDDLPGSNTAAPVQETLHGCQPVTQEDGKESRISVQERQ

Binder | IC50, inhibition of tonsillar human B cell proliferation stimulated by IZ-hCD40L trimer (M4 lot 1) [µg/mL] | IC50, inhibition of tonsillar human B cell proliferation stimulated by IZ-hCD40L trimer (M4 lot 2) [µg/mL] | IC50, inhibition of tonsillar human B cell proliferation stimulated by hCD40L expressing CHO cells (M4 lot 1) [µg/mL] | IC50, inhibition of tonsillar human B cell proliferation stimulated by hCD40L expressing CHO cells (M4 lot 2) [µg/mL] | IC50, inhibition of tonsillar human B cell proliferation stimulated by IZ-hCD40L trimer [µg/mL] | IC50, inhibition of tonsillar human B cell proliferation stimulated by hCD40L expressing CHO cells [µg/mL]
B1 | 0.0029 | 0.0008 | 0.0237 | 0.0396 |  | 
B2 |  |  |  |  | 0.0277 | 0.353
